# Laboratory results reported in the supplement of paper PMC10567573.
# B1: TRIM14 (parent)
# chain: YARTPTLDPDTMHARLRLSADRLT
# Variants of: B1
# Assay: protein stability index of a GFP-peptide fusion (GPS, HEK-293T) (PSI 1-6); higher = more stable
# Settings: c terminus: a fixed tail appended
# 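Also: lentivirally expressed fusions sorted by FACS into six bins by GFP to DsRed ratio, PSI derived from sequencing read proportions per bin multiplied by bin number.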
row,Variant,protein stability index
1,YARTPTLDPDTMHARLRLSIDRLT,2.85
2,YARTPTLDPDTMHARLRLSVDRLT,1.96
3,YARTPTLDPDTMHARLRLSWDRLT,3.31
4,YARTPTLDPDTMHARLRLSGDRLT,2.37
5,YARTPTLDPDTMHARLRLSYDRLT,2.18
6,YARTPTLDPDTMHARLRLSKDRLT,3.38
7,YARTPTLDPDTMHARLRLSEDRLT,3.03
8,YARTPTLDPDTMHARLRLSHDRLT,2.56
9,YARTPTLDPDTMHARLRLSLDRLT,2.04
10,YARTPTLDPDTMHARLRLSRDRLT,1.49
11,YARTPTLDPDTMHARLRLSMDRLT,2.35
12,YARTPTLDPDTMHARLRLSNDRLT,2.55
13,YARTPTLDPDTMHARLRLSTDRLT,2.5
14,YARTPTLDPDTMHARLRLSQDRLT,1.84
15,YARTPTLDPDTMHARLRLSDDRLT,2.83
16,YARTPTLDPDTMHARLRLSCDRLT,2.14
17,YARTPTLDPDTMHARLRLSFDRLT,1.61
18,YARTPTLDPDTMHARLRLSSDRLT,3.14
19,YARTPTLDPDTMHARLRLSPDRLT,2.6
20,YARTPTLDPDTMKARLRLSADRLT,2.15
21,YARTPTLDPDTMSARLRLSADRLT,3.17
22,YARTPTLDPDTMTARLRLSADRLT,2.77
23,YARTPTLDPDTMDARLRLSADRLT,3.77
24,YARTPTLDPDTMVARLRLSADRLT,2.23

row,Variant,protein stability index
1,YARTPTLDPDTMAARLRLSADRLT,2.62
2,YARTPTLDPDTMCARLRLSADRLT,2.27
3,YARTPTLDPDTMYARLRLSADRLT,2.3
4,YARTPTLDPDTMEARLRLSADRLT,2.71
5,YARTPTLDPDTMFARLRLSADRLT,2.63
6,YARTPTLDPDTMIARLRLSADRLT,2.69
7,YARTPTLDPDTMPARLRLSADRLT,3.06
8,YARTPTLDPDTMLARLRLSADRLT,2.61
9,YARTPTLDPDTMNARLRLSADRLT,2.75
10,YARTPTLDPDTMRARLRLSADRLT,2.87
11,YARTPTLDPDTMWARLRLSADRLT,2.51
12,YARTPTLDPDTMQARLRLSADRLT,2.84
13,YARTPTLDPDTMMARLRLSADRLT,2.69
14,YARTPTLDPDHMHARLRLSADRLT,2.12
15,YARTPTLDPDNMHARLRLSADRLT,2.45
16,YARTPTLDPDVMHARLRLSADRLT,2.36
17,YARTPTLDPDWMHARLRLSADRLT,2.15
18,YARTPTLDPDMMHARLRLSADRLT,2.12
19,YARTPTLDPDIMHARLRLSADRLT,2.26
20,YARTPTLDPDYMHARLRLSADRLT,2.9
21,YARTPTLDPDRMHARLRLSADRLT,3.65
22,YARTPTLDPDLMHARLRLSADRLT,2.27
23,YARTPTLDPDPMHARLRLSADRLT,2.79
24,YARTPTLDPDQMHARLRLSADRLT,2.81

row,Variant,protein stability index
1,YARTPTLDPDKMHARLRLSADRLT,3.29
2,YARTPTLDPDSMHARLRLSADRLT,2.66
3,YARTPTLDPDTMHARKRLSADRLT,3.01
4,YARTPTLDPDTMHARSRLSADRLT,3.52
5,YARTPTLDPDTMHARFRLSADRLT,2.84
6,YARTPTLDPDTMHARERLSADRLT,3.5
7,YARTPTLDPDTMHARNRLSADRLT,2.57
8,YARTPTLDPDTMHARMRLSADRLT,2.67
9,YARTPTLDPDTMHARHRLSADRLT,3.27
10,YARTPTLDPDTMHARIRLSADRLT,2.56
11,YARTPTLDPDTMHARCRLSADRLT,1.93
12,YARTPTLDPDTMHARYRLSADRLT,2.19
13,YARTPTLDPDTMHARPRLSADRLT,2.94
14,YARTPTLDPDTMHARTRLSADRLT,3.02
15,YARTPTLDPDTMHARDRLSADRLT,2.77
16,YARTPTLDPDTMHARRRLSADRLT,3.27
17,YARTPTLDPDTMHARWRLSADRLT,2.56
18,YARTPTLDPDTMHARVRLSADRLT,2.49
19,YARTPTLDPDTMHARQRLSADRLT,2.93
20,YARTPTLDPDTMHSRLRLSADRLT,3.02
21,YARTPTLDPDTMHTRLRLSADRLT,2.61
22,YARTPTLDPDTMHMRLRLSADRLT,2.36
23,YARTPTLDPDTMHHRLRLSADRLT,2.04
24,YARTPTLDPDTMHPRLRLSADRLT,2.45

row,Variant,protein stability index
1,YARTPTLDPDTMHDRLRLSADRLT,3.25
2,YARTPTLDPDTMHIRLRLSADRLT,2.13
3,YARTPTLDPDTMHNRLRLSADRLT,3.08
4,YARTPTLDPDTMHYRLRLSADRLT,1.98
5,YARTPTLDPDTMHWRLRLSADRLT,2.7
6,YARTPTLDPDTMHGRLRLSADRLT,3.26
7,YARTPTLDPDTMHVRLRLSADRLT,2.53
8,YARTPTLDPDTMHRRLRLSADRLT,2.13
9,YARTPTLDPDTMHFRLRLSADRLT,1.96
10,YARTPTLDPDTMHLRLRLSADRLT,2.81
11,YARTPTLDPDTMHCRLRLSADRLT,2.62
12,YARTPTLDPDTMHKRLRLSADRLT,1.83
13,YARTPTLDPDTMHERLRLSADRLT,2.67
14,YARTPTLDPDTMHQRLRLSADRLT,2.59
15,YARTPTLDPDTMHARLRFSADRLT,2.04
16,YARTPTLDPDTMHARLRVSADRLT,2.62
17,YARTPTLDPDTMHARLRMSADRLT,2.65
18,YARTPTLDPDTMHARLRYSADRLT,2.93
19,YARTPTLDPDTMHARLRHSADRLT,2.82
20,YARTPTLDPDTMHARLRGSADRLT,2.06
21,YARTPTLDPDTMHARLRTSADRLT,2.42
22,YARTPTLDPDTMHARLRISADRLT,2.78
23,YARTPTLDPDTMHARLRQSADRLT,2.65
24,YARTPTLDPDTMHARLRSSADRLT,2.87

row,Variant,protein stability index
1,YARTPTLDPDTMHARLRCSADRLT,2.62
2,YARTPTLDPDTMHARLRDSADRLT,3.38
3,YARTPTLDPDTMHARLRNSADRLT,3.3
4,YARTPTLDPDTMHARLRPSADRLT,3.34
5,YARTPTLDPDTMHARLRESADRLT,3.06
6,YARTPTLDPDTMHARLRWSADRLT,2.18
7,YARTPTLDPDTMHARLRKSADRLT,2.51
8,YARTPTLDPDTMHARLRASADRLT,3.6
9,YARTPTLDPDTMHARLRRSADRLT,2.81
10,YARTPTLDPDTMHARLILSADRLT,2.81
11,YARTPTLDPDTMHARLFLSADRLT,2.02
12,YARTPTLDPDTMHARLKLSADRLT,2.58
13,YARTPTLDPDTMHARLHLSADRLT,2.73
14,YARTPTLDPDTMHARLWLSADRLT,1.42
15,YARTPTLDPDTMHARLNLSADRLT,3.2
16,YARTPTLDPDTMHARLYLSADRLT,2.27
17,YARTPTLDPDTMHARLVLSADRLT,2.31
18,YARTPTLDPDTMHARLLLSADRLT,2.29
19,YARTPTLDPDTMHARLALSADRLT,2.89
20,YARTPTLDPDTMHARLGLSADRLT,3.01
21,YARTPTLDPDTMHARLTLSADRLT,2.91
22,YARTPTLDPDTMHARLELSADRLT,3.04
23,YARTPTLDPDTMHARLSLSADRLT,3.01
24,YARTPTLDPDTMHARLCLSADRLT,2.25

row,Variant,protein stability index
1,YARTPTLDPDTMHARLQLSADRLT,2.56
2,YARTPTLDPDTMHARLDLSADRLT,3.18
3,YARTPTLDPDTMHARLMLSADRLT,2.42
4,YARTPTLDPDTMHARLPLSADRLT,2.84
5,YARTPTLDPDTMHAMLRLSADRLT,2.73
6,YARTPTLDPDTMHAVLRLSADRLT,2.04
7,YARTPTLDPDTMHAWLRLSADRLT,1.95
8,YARTPTLDPDTMHAELRLSADRLT,3.25
9,YARTPTLDPDTMHAPLRLSADRLT,2.83
10,YARTPTLDPDTMHAILRLSADRLT,2.87
11,YARTPTLDPDTMHAKLRLSADRLT,2.45
12,YARTPTLDPDTMHASLRLSADRLT,3.53
13,YARTPTLDPDTMHAFLRLSADRLT,1.93
14,YARTPTLDPDTMHAYLRLSADRLT,2.26
15,YARTPTLDPDTMHAALRLSADRLT,2.81
16,YARTPTLDPDTMHATLRLSADRLT,3.03
17,YARTPTLDPDTMHAQLRLSADRLT,2.43
18,YARTPTLDPDTMHADLRLSADRLT,2.8
19,YARTPTLDPDTMHACLRLSADRLT,1.85
20,YARTPTLDPDTMHAHLRLSADRLT,2.73
21,YARTPTLDPDTMHAGLRLSADRLT,3.36
22,YARTPTLDPDTMHANLRLSADRLT,2.61
23,YARTPTLDPDTMHALLRLSADRLT,2.29
24,YARTPTLDPDTYHARLRLSADRLT,2.01

row,Variant,protein stability index
1,YARTPTLDPDTQHARLRLSADRLT,2.68
2,YARTPTLDPDTSHARLRLSADRLT,3.21
3,YARTPTLDPDTDHARLRLSADRLT,3.94
4,YARTPTLDPDTPHARLRLSADRLT,3.2
5,YARTPTLDPDTGHARLRLSADRLT,2.89
6,YARTPTLDPDTEHARLRLSADRLT,3.6
7,YARTPTLDPDTTHARLRLSADRLT,2.74
8,YARTPTLDPDTIHARLRLSADRLT,2.62
9,YARTPTLDPDTAHARLRLSADRLT,2.56
10,YARTPTLDPDTHHARLRLSADRLT,3.13
11,YARTPTLDPDTNHARLRLSADRLT,3.63
12,YARTPTLDPDTCHARLRLSADRLT,2.34
13,YARTPTLDPDTKHARLRLSADRLT,2.72
14,YARTPTLDPDTLHARLRLSADRLT,2.43
15,YARTPTLDPDTFHARLRLSADRLT,2.01
16,YARTPTLDPDTRHARLRLSADRLT,3.07
17,YARTPTLDPDTVHARLRLSADRLT,2.06
18,YARTPTLDPDTMHARLRLIADRLT,2.79
19,YARTPTLDPDTMHARLRLEADRLT,2.93
20,YARTPTLDPDTMHARLRLCADRLT,2.42
21,YARTPTLDPDTMHARLRLAADRLT,2.5
22,YARTPTLDPDTMHARLRLHADRLT,2.26
23,YARTPTLDPDTMHARLRLQADRLT,2.72
24,YARTPTLDPDTMHARLRLPADRLT,3.06

row,Variant,protein stability index
1,YARTPTLDPDTMHARLRLRADRLT,2.88
2,YARTPTLDPDTMHARLRLWADRLT,1.77
3,YARTPTLDPDTMHARLRLFADRLT,1.99
4,YARTPTLDPDTMHARLRLTADRLT,2.77
5,YARTPTLDPDTMHARLRLMADRLT,2.06
6,YARTPTLDPDTMHARLRLGADRLT,2.21
7,YARTPTLDPDTMHARLRLKADRLT,2.29
8,YARTPTLDPDTMHARLRLVADRLT,3.62
9,YARTPTLDPDTMHARLRLDADRLT,2.59
10,YARTPTLDPDTMHARLRLLADRLT,2.33
11,YARTPTLDPDTMHARLRLYADRLT,1.89
12,YARTPTLDPDTMHARLRLNADRLT,3.01
13,YARTPTLDPDTMHARLRLSACRLT,2.77
14,YARTPTLDPDTMHARLRLSAHRLT,3.32
15,YARTPTLDPDTMHARLRLSAIRLT,1.23
16,YARTPTLDPDTMHARLRLSAFRLT,2.34
17,YARTPTLDPDTMHARLRLSAERLT,2.53
18,YARTPTLDPDTMHARLRLSAARLT,2.43
19,YARTPTLDPDTMHARLRLSAKRLT,2.06
20,YARTPTLDPDTMHARLRLSAGRLT,2.08
